To fix the notation:
B1: monoclonal antibody 4540 (antibody, V domains shown)
VH: QVQLQQSGPELVKPGASVKISCKASGYTFADYYINWVKQRPGQGLEWIGWIFPGSGSTYYNEKFKGKATLTVDKSSSTAYMLLSSLTSEDSAVYFCARGDSGRAMDYWGQGTSVTVSS
VL: DIQMTQSPSSLSASLGGKVTITCKASQDINKYIAWYQHKPGKGPRLLIHYTSTLQSGIPSRFSGSGSGRDYSFSISNLEPEDNATYYCLQYDNLLTFGAGTKLELK
notes: mouse-derived
B2: monoclonal antibody 3631 (antibody, V domains shown)
VH: EIQLQQSGPELVKPGASVKVSCKASGYSFTDYNIYWVKQSHGKSLEWIGYIDPSNGGPGYNQKFRGKATLTVDKSSSTAFLHLNSLTSEDSAVYYCARRDNYGSGTMDYWGQGTSVTVSS
VL: DIVMTQSQKFMSTSVGDRVSITCKASQNVGTDVSWYQQKPGKSPKPLIYWASNRFTGVPDRFIGSGSGTDFTLTISNVQSEDLADYFCEQYSIYPLTFGAGTKLELK
notes: mouse-derived
B3: monoclonal antibody 3732 (antibody, V domains shown)
VH: B2 VH with Y32D, I34M, S54L, P58T, R65K, G103A, S104T
VL: B2 VL with Q27K, I63T, S76N, I93S
notes: mouse-derived
B4: monoclonal antibody 3530 (antibody, mouse IgG2, V domains shown)
VH: QVQLQQSGAELVRPGASVKLSCKASGYTFTDHEMHWVRQTPVHGLEWIGVIDPDTGDTTYNQKFKGKATLTADKSSSTAYMDLRSLTSEDSAVFYCTRWTGGDYWGHGTTLTVSS
VL: DAVMTQTPLSLSVTIGQPASISCKSSQSLLYSDGKTYLNWFQQRPGQSPKRLMYQVSKLDPGIPDRFSGSGSETDFTLKISRVEAEDLGVYYCLQGTYYPYTFGSGTKLEIK
B5: monoclonal antibody 2218 (antibody, mouse IgG2, V domains shown)
VH: DVQLQESGPGLVKPSQSLSLTCSVTGYSITSGYYWNWIRQFPGNKLEWMGYISYDGYNNYNPSLKNRISITRDTSKNQFFLKLNSVTTEDTATYYCANYYDYEDWYFGVWGTGTTVTVSS
VL: DIVLTQSPASLAMSLGKRATISCRASESVSIIGTNSIHWYQQKPGQPPKLLIYHASNLETGVPARFSGSGSRTDFTLTIDPVEEDDVAIYYCLQSRKIPYTFGGGTKLEIK

Substitutions are numbered along the chain they refer to.

Sequence of human TRAIL (TNFSF10, Adipogen) (P50591 95-281 limits assumed): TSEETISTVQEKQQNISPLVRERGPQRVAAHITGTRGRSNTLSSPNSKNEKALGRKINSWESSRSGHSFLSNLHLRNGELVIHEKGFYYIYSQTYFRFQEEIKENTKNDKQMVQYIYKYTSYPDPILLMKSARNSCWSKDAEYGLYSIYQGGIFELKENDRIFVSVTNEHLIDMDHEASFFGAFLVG
Sequence of mouse BAFF (TNFSF13B, Adipogen) (Q9WU72 127-309 limits assumed): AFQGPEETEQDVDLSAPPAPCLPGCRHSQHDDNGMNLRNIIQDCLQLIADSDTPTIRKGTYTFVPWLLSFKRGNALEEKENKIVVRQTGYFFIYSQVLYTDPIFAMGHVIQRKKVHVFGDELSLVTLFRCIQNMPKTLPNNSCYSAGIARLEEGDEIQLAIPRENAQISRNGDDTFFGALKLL
Sequence of human BAFF (TNFSF13B, AB Biosciences) (Q9Y275 134-285 limits assumed): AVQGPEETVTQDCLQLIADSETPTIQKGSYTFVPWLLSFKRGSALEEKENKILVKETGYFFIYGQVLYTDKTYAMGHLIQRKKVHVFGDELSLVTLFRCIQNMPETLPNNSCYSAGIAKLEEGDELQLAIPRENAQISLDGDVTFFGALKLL
Sequence of human TNFα (TNFSF2; Adipogen) (P01375 85-233 limits assumed): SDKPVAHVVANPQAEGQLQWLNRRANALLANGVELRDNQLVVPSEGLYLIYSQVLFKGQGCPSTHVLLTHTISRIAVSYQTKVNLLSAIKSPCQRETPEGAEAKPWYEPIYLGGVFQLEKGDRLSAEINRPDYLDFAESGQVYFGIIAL
Sequence of human LIGHT (TNFSF14, Adipogen) (O43557 89-240 limits assumed): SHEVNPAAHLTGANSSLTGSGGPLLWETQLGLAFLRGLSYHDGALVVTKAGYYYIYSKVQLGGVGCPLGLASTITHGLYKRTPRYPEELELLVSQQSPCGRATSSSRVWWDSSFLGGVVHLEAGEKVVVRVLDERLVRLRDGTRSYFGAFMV

The first assay deals with T1, HA-GCN4 hAPRIL (amino acid residues 105-250) (human, UniProt O75888 105-250).
T1 construct: Bought (R&D Systems); also called HA-tagged GCN4 human APRIL; HA-GCN4-huAPRIL; not shown: N-terminal HA tag; GCN4 isoleucine zipper oligomerization domain
T1 sequence: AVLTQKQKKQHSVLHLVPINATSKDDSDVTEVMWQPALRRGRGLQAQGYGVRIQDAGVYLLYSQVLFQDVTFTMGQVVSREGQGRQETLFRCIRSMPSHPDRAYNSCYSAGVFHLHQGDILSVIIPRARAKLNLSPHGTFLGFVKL
Kind of assay: blocking ELISA, 4-parameter fit; blocked: human APRIL binding to human BCMA-Fc. The protocol: (§1) FIGS. 19A-19B depict the antibody inhibition of APRIL binding to TNFSF receptors TACI (FIG. 19A) and BCMA (FIG. 19B). Assay is based on blocking ELISA using recombinant human APRIL (R&D Systems) and Human TACI-Fc. Inhibition was analyzed by non-linear regression using a four parameter fit.
(§2) Recombinant TACI-Fc or BCMA-Fc was coated on 96 well plates in 0.1 M carbonate-bicarbonate buffer (pH 9.6), overnight at 4° C. Plates were washed three times with 1×PBST (PBS+0.025% Tween 20) followed by blocking with 1% BSA in 1×PBS, 37° C. for 1 hour. All subsequent wash steps were carried out with 1×PBST. To assess antibody blocking, either 15 ng/mL or 50 ng/mL HA-GCN4-huAPRIL was preincubated with varying antibody concentrations ranging from 0.03-30 μg/mL in binding buffer comprised of 1% BSA and 0.025% Tween-20 in 1×PBS. Preincubation was carried out at 30° C. for 1 hour with mixing. Antibody-APRIL premix with 50 ng/mL APRIL or 15 ng/mL APRIL was then added to TACI-Fc coated or BCMA-Fc coated plates, respectively, and incubated for an additional hour at 30° C. HA-tagged APRIL binding to either receptor was quantified using a goat polyclonal anti-HA tag-HRP antibody (Abcam) added at a 1:10000 dilution followed by colorimetric development using 100 μl/well of freshly prepared TMB substrate (KPL) carried out for up to 30 minutes at room temperature before quenching enzymatic reaction by the addition of 1N sulfuric acid. ELISA signal was quantified by absorbance at 450 nm. ELISA data was analyzed by non-linear regression. IC₅₀ values were calculated based on a 4 parameter fit of antibody titration curves. […] Non-blocking antibodies Aprly-1 or Aprly-5 (Enzo Biosciences) were used as negative controls. Mouse specific, blocking antibody aprily-1-1 (Adipogen) was generally used as a positive control in experiments using mouse APRIL (HA-GCN4-mAPRIL).
On to B1, for which the IC50 worked out at 0.66 nM.
On to B2, for which the IC50 stood at 0.48 nM.
Regarding B3, the half-maximal inhibitory concentration (IC50) stood at 0.22 nM.
On the same count and under the same terms, the result for B4 reads 0.48 nM; that for B5, 0.31 nM.

The target in the next assay is T1, HA-GCN4 hAPRIL (amino acid residues …). Put plainly: blocking ELISA; blocked: human APRIL binding to human BCMA-Fc. Also noted: concentration or dose not given beside the values. As to the method:
as §1, §2
For the molecule B1, the “% Inhibition” value came to 98%.
On the same count and under the same terms, the result for B2 reads 100%; that for B3, 100%.
As to B4, the “% Inhibition” value came out at 37%.
As to B5, the “% Inhibition” value was determined as 99%.

A further assay concerns the target human BAFF (TNFSF13B, AB Biosciences) (human, UniProt Q9Y275 134-285, limits assumed). Put plainly: indirect ELISA, cytokine coated. As to the method: (§3) Selected anti-APRIL antibodies were evaluated for potential cross-reactivity with other members of the TNFa superfamily (TNFSF) family of cytokines, including: human TNFα (TNFSF2; Adipogen), human […] (TNFSF4, Adipogen), human FasL (TNFSF6, Adipogen), human TRAIL (TNFSF10, Adipogen), human RANKL (TNFSF11; Adipogen), human Tweak (TNFSF12; Abcam), human and mouse BAFF (TNFSF13B, AB Biosciences and Adipogen, respectively), and human LIGHT (TNFSF14, Adipogen). These cytokines share variable degree of sequence as well as higher order structural homologies. Among them, BAFF appears to be the most closely related to APRIL, with 29% identity and 53% amino acid sequence similarity.
(§4) Binding was evaluated by an indirect ELISA protocol using similar methods described for evaluation of APRIL binding; cytokines were immobilized to ELISA plate at 50 ng per well and then exposed to a solution of each of the test antibodies at a fixed concentration of 10 μg/ml Anti-human or anti-mouse Ig-HRP polyclonal antibody conjugates (Jackson Laboratories) were used for detection of antibody binding. The results presented in FIG. 36 indicated eleven of the twelve antibodies tested in this assay to specifically bind APRIL with no measurable cross-reactivity with the other TNFSF members substantially above assay background.
For the molecule B1, the binding result is listed as “no binding (tested: 10 µg/ml (p-1128))”.
B3: the binding result was “no binding (tested: 10 µg/ml (p-1128))”.
B4: the binding result is recorded as “no binding (tested: 10 µg/ml (p-1128))”.
The same measure, in the same setting: under B5 stands “no binding (tested: 10 µg/ml (p-1128))”.

The next assay has as its target human TRAIL (TNFSF10, Adipogen) (human, UniProt P50591 95-281, limits assumed). Put plainly: indirect ELISA, cytokine coated. As to the method: as §3, §4
As to B1, the binding result is given as “no binding (tested: 10 µg/ml (p-1128))”.
For the molecule B2, the binding result is “no binding (tested: 10 µg/ml (p-1128))”.
As for B3, the binding result is “no binding (tested: 10 µg/ml (p-1128))”.
The same measure, in the same setting: the result for B4 reads “no binding (tested: 10 µg/ml (p-1128))”; that for B5, “no binding (tested: 10 µg/ml (p-1128))”.

A further assay concerns the target human LIGHT (TNFSF14, Adipogen) (human, UniProt O43557 89-240, limits assumed). Kind of assay: indirect ELISA, cytokine coated. As to the method: as §3, §4
Take B1: the binding result is listed as “no binding (tested: 10 µg/ml (p-1128))”.
The same measure, in the same setting: the result for B2 reads “no binding (tested: 10 µg/ml (p-1128))”; that for B3, “no binding (tested: 10 µg/ml (p-1128))”; that for B4, “no binding (tested: 10 µg/ml (p-1128))”.
With B5, the binding result is “no binding (tested: 10 µg/ml (p-1128))”.

The target in another assay is T2, human Tweak (TNFSF12; Abcam) (human, UniProt O43508 94-249, limits assumed).
T2 sequence (looked up): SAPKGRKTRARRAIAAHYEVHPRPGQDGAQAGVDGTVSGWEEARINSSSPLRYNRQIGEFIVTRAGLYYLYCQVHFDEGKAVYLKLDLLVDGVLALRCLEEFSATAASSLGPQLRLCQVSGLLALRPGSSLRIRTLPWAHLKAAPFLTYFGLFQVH
Put plainly: indirect ELISA, cytokine coated. As to the method:
as §3, §4
In the case of B1, the binding result is “no binding (tested: 10 µg/ml (p-1128))”.
The same measure, in the same setting: the result for B2 reads “no binding (tested: 10 µg/ml (p-1128))”.
The same measure, in the same setting: the result for B3 reads “no binding (tested: 10 µg/ml (p-1128))”.
In the case of B4, the binding result is listed as “no binding (tested: 10 µg/ml (p-1128))”.
On the same count and under the same terms, the result for B5 reads “no binding (tested: 10 µg/ml (p-1128))”.

The target in a further assay is mouse BAFF (TNFSF13B, Adipogen) (mouse, UniProt Q9WU72 127-309, limits assumed). Put plainly: indirect ELISA, cytokine coated. As to the method:
as §3, §4
As for B1, the binding result is on record as “no binding (tested: 10 µg/ml (p-1128))”.
The same measure, in the same setting: under B3 stands “no binding (tested: 10 µg/ml (p-1128))”; under B4, “no binding (tested: 10 µg/ml (p-1128))”.
Still for that read-out and setting: the result for B5 reads “no binding (tested: 10 µg/ml (p-1128))”.

A further assay deals with T3, human RANKL (TNFSF11; Adipogen) (human, UniProt O14788 152-317, limits assumed).
T3 sequence (looked up): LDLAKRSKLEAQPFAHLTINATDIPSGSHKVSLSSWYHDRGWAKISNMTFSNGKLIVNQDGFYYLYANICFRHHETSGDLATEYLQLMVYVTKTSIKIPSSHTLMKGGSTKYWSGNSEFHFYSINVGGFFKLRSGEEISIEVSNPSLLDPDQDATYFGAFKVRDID
Put plainly: indirect ELISA, cytokine coated. The protocol:
as §3, §4
Take B1: the binding result is “no binding (tested: 10 µg/ml (p-1128))”.
Consider B2, for which the binding result is “no binding (tested: 10 µg/ml (p-1128))”.
The same measure, in the same setting: the result for B3 reads “no binding (tested: 10 µg/ml (p-1128))”; that for B4, “no binding (tested: 10 µg/ml (p-1128))”; that for B5, “no binding (tested: 10 µg/ml (p-1128))”.

A further assay has as its target human TNFα (TNFSF2; Adipogen) (human, UniProt P01375 85-233, limits assumed). Put plainly: indirect ELISA, cytokine coated. As to the method:
as §3, §4
Take B1: the binding result is recorded as “no binding (tested: 10 µg/ml (p-1128))”.
B2: the binding result is reported as “no binding (tested: 10 µg/ml (p-1128))”.
With B3, the binding result is given as “no binding (tested: 10 µg/ml (p-1128))”.
For the molecule B4, the binding result is given as “no binding (tested: 10 µg/ml (p-1128))”.
The same measure, in the same setting: the result for B5 reads “no binding (tested: 10 µg/ml (p-1128))”.
